Test results published in patent publication US20210095032A1 (SALUBRIS CHENGDU BIOTECH, published 2021).

Biological target: T1, biotin-labeled human PD-1 Fc protein (human, biotin-labeled (site not stated))
T1 construct: also called PD-1-Fc-biotin
Assay: capture ELISA

T1 sequence (chain, as listed by the source limits assumed): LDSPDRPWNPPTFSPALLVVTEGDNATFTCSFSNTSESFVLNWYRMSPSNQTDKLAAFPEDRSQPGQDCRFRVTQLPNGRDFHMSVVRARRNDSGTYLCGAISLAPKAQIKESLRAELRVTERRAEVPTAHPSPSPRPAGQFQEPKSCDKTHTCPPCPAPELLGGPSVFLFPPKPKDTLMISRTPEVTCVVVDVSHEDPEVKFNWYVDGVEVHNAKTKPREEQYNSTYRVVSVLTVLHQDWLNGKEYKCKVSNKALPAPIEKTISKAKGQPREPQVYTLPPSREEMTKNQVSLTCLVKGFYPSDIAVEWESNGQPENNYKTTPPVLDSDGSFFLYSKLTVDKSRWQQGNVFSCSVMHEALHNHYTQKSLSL

B1: huD2H3-V13 (antibody, human IgG1, kappa, V domains shown)
VH: EVQLVQSGAEVKKPGSSVKVSCKSSGYTFTNYWMHWVRQAPGQGLEWIGAIFPRNSETNYNQKFKARATLTADTSTSTAYMELSSLRSEDTAVYFCTRNRYGLDYWGQGTLVTVSS
VL: DIVMTQSPDSLAVSLGERATINCRASESVSLHGTRLMHWYQQKPGQPPKLLIYLGSNLESGVPDRFSGSGSGTDFTLTISSLQAEDVAVYYCQQSIEDPWTFGQGTKLEIKR
notes: Humanized D2H3, human IgG1/kappa; No EC50 is printed for this variant; it appears only in the sentences about the group
Does B1 bind?
Result: binds
